Test results published in US20230122079A1 (published 2023).

B1: 30436 (WT PD-1: HA PD-L1 masked CD3 × Her2 Fab × scFv Fc, PD-1 cleavable), not treated with uPa (bispecific antibody)
heavy: not shown
light: AFTVTVPKDLYVVEYGSNMTIECKFPVEKQLDLAALQVFWMMEDKNIIQFVHGEEDLKVQHSSYRQRARLLKDQLSLGNAALQITDVKLQDAGVYTCLIAYKGADYKRITVKVNAEAAAKEAAAKDIQMTQSPSSLSASVGDRVTMTCSASSSVSYMNWYQQKPGKAPKRWIYDSSKLASGVPARFSGSGSGTDYTLTISSLQPEDFATYYCQQWSRNPPTFGGGTKLQITRTVAAPSVFIFPPSDEQLKSGTASVVCLLNNFYPREAKVQWKVDNALQSGNSQESVTEQDSKDSTYSLSSTLTLSKADYEKHKVYACEVTHQGLSSPVTKSFNRGEC
chain: not shown
B2: 30436 treated with uPa (bispecific antibody)
heavy: not shown
light: B1 light
chain: not shown
B3: 31931 (Half-masked CD3 × Her2 Fab × scFv Fc, HA PD-L1 attached to LC) (bispecific antibody)
heavy: not shown
light: B1 light
chain: not shown
B4: 31929 (Half-masked CD3 × Her2 Fab × scFv Fc, HA PD-1 attached to HC) (bispecific antibody)
heavy: not shown
light: DIQMTQSPSSLSASVGDRVTMTCSASSSVSYMNWYQQKPGKAPKRWIYDSSKLASGVPARFSGSGSGTDYTLTISSLQPEDFATYYCQQWSRNPPTFGGGTKLQITRTVAAPSVFIFPPSDEQLKSGTASVVCLLNNFYPREAKVQWKVDNALQSGNSQESVTEQDSKDSTYSLSSTLTLSKADYEKHKVYACEVTHQGLSSPVTKSFNRGEC
chain: not shown
B5: 30421 (CD3 × Her2 Fab × scFv Fc without mask) (bispecific antibody)
heavy: not shown
light: B4 light
chain: not shown

Key:
CD3 on Jurkat cells [1] = target: CD3 on Jurkat cells (human); assay: cell ELISA; -uPa
CD3 on Jurkat cells [2] = target: CD3 on Jurkat cells (human); assay: cell ELISA; +uPa
CD3 on Jurkat cells [3] = target: CD3 on Jurkat cells (human); assay: cell ELISA

Chain of CD3 on Jurkat cells (human) (chain, as listed by the source, chain 1 of 4): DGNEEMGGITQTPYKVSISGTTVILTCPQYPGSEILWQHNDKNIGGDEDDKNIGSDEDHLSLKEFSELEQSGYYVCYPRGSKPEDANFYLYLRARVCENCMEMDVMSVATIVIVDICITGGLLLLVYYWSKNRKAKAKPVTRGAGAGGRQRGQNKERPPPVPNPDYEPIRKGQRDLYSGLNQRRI
Chain of CD3 on Jurkat cells (human) (chain, as listed by the source, chain 2 of 4): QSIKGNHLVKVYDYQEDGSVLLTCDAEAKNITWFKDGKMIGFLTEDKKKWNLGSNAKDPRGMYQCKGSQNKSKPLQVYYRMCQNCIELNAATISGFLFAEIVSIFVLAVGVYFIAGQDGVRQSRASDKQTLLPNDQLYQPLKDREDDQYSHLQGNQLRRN
Chain of CD3 on Jurkat cells (human) (chain, as listed by the source, chain 3 of 4): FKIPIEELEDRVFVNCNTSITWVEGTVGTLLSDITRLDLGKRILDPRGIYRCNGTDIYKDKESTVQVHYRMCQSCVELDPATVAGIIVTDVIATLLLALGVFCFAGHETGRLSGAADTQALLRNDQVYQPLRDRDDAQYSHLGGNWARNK
Chain of CD3 on Jurkat cells (human) (chain, as listed by the source, chain 4 of 4): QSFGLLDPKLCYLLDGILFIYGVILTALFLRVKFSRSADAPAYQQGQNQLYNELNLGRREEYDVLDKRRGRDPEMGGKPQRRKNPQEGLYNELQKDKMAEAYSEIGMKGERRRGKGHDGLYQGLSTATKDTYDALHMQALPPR

| Binder | EC50 (CD3 on Jurkat cells [3]) | further results |
| --- | --- | --- |
| B1 |  | EC50 (CD3 on Jurkat cells [1]): 178 nM |
| B2 |  | EC50 (CD3 on Jurkat cells [2]): 6.22 nM |
| B3 | 5.33 nM |  |
| B4 | 4.2 nM |  |
| B5 | 1.22 nM |  |
